The results in this text go back to PMC6855462.

The experiment deals with FL H1#5070 (full-length HA of H1 A/Brisbane/59/2007, C-terminally modified with a sortase A LPXTG recognition sequence, biotinylated HA probe) (influenza A virus H1 A/Brisbane/59/2007). Put plainly: SEC-MALS; Superdex 200 10-300 GL column, after sortase-mediated biotinylation; trimeric fractions collected; stored in 20mM Tris, 150mM NaCl, pH7.8. In general terms: Size exclusion chromatography separates by hydrodynamic size, large species first.

For the substance “FL H1#5070 (full-length HA of H1 A/Brisbane/59/2007, C-terminally modified with a sortase A LPXTG recognition sequence, biotinylated HA probe) (natural protein)”, the stoichiometry N (commonly a count of units in the complex or per binding partner) was determined as 3.
